{"source": "the Human Domainome abundance scans (Beltran et al. 2025)", "parents": {"B1": {"name": "Ras GTPase-activating protein 1, residues 281 to 341; numbered along this chain, P20936 (parent)", "chain": "RRRVRAILPYTKVPDTDEISFLKGDMFIVHNELEDGWMWVTNLRTDEQGLIVEDLVEEVGR"}}, "note": "± gives the uncertainty stated by the source.", "data": [{"variants_of": "B1", "assay": "abundance fitness (aPCA) (normalised: wild type 0, dead -1); higher = more abundant; growth selection in yeast, the domain comes from the species named", "conditions": "Homo sapiens", "values": [{"variant": "RRRVRAILPYTPVPDTDEISFLKGDMFIVHNELEDGWMWVTNLRTDEQGLIVEDLVEEVGR", "note": "[K12P]", "abundance fitness": "-0.102 ± 0.037"}, {"variant": "RRRVRAILPYTIVPDTDEISFLKGDMFIVHNELEDGWMWVTNLRTDEQGLIVEDLVEEVGR", "note": "[K12I]", "abundance fitness": "-1.01 ± 0.062"}, {"variant": "RRRVRAILPYTCVPDTDEISFLKGDMFIVHNELEDGWMWVTNLRTDEQGLIVEDLVEEVGR", "note": "[K12C]", "abundance fitness": "-0.101 ± 0.029"}, {"variant": "RRRVRAILPYTRVPDTDEISFLKGDMFIVHNELEDGWMWVTNLRTDEQGLIVEDLVEEVGR", "note": "[K12R]", "abundance fitness": "-0.052 ± 0.033"}, {"variant": "RRRVRAILPYTGVPDTDEISFLKGDMFIVHNELEDGWMWVTNLRTDEQGLIVEDLVEEVGR", "note": "[K12G]", "abundance fitness": "0.023 ± 0.032"}, {"variant": "RRRVRAILPCTKVPDTDEISFLKGDMFIVHNELEDGWMWVTNLRTDEQGLIVEDLVEEVGR", "note": "[Y10C]", "abundance fitness": "-0.539 ± 0.05"}, {"variant": "RRRVRAILPDTKVPDTDEISFLKGDMFIVHNELEDGWMWVTNLRTDEQGLIVEDLVEEVGR", "note": "[Y10D]", "abundance fitness": "-1.04 ± 0.13"}, {"variant": "RRRVRAILPKTKVPDTDEISFLKGDMFIVHNELEDGWMWVTNLRTDEQGLIVEDLVEEVGR", "note": "[Y10K]", "abundance fitness": "-0.485 ± 0.15"}, {"variant": "RRRVRAILPVTKVPDTDEISFLKGDMFIVHNELEDGWMWVTNLRTDEQGLIVEDLVEEVGR", "note": "[Y10V]", "abundance fitness": "-0.728 ± 0.06"}, {"variant": "RRRVRAILPNTKVPDTDEISFLKGDMFIVHNELEDGWMWVTNLRTDEQGLIVEDLVEEVGR", "note": "[Y10N]", "abundance fitness": "-0.35 ± 0.048"}, {"variant": "RRRVRAILPATKVPDTDEISFLKGDMFIVHNELEDGWMWVTNLRTDEQGLIVEDLVEEVGR", "note": "[Y10A]", "abundance fitness": "-0.588 ± 0.088"}, {"variant": "RRRVRAILPGTKVPDTDEISFLKGDMFIVHNELEDGWMWVTNLRTDEQGLIVEDLVEEVGR", "note": "[Y10G]", "abundance fitness": "-0.84 ± 0.091"}, {"variant": "RRRVRAILPSTKVPDTDEISFLKGDMFIVHNELEDGWMWVTNLRTDEQGLIVEDLVEEVGR", "note": "[Y10S]", "abundance fitness": "-0.623 ± 0.042"}, {"variant": "RRRVRAILPHTKVPDTDEISFLKGDMFIVHNELEDGWMWVTNLRTDEQGLIVEDLVEEVGR", "note": "[Y10H]", "abundance fitness": "0.084 ± 0.045"}, {"variant": "RRRVRAILPRTKVPDTDEISFLKGDMFIVHNELEDGWMWVTNLRTDEQGLIVEDLVEEVGR", "note": "[Y10R]", "abundance fitness": "-0.27 ± 0.045"}, {"variant": "RRRVRAILPQTKVPDTDEISFLKGDMFIVHNELEDGWMWVTNLRTDEQGLIVEDLVEEVGR", "note": "[Y10Q]", "abundance fitness": "-0.422 ± 0.089"}, {"variant": "RRRVRAILPTTKVPDTDEISFLKGDMFIVHNELEDGWMWVTNLRTDEQGLIVEDLVEEVGR", "note": "[Y10T]", "abundance fitness": "-0.999 ± 0.098"}, {"variant": "RRRVRAILPMTKVPDTDEISFLKGDMFIVHNELEDGWMWVTNLRTDEQGLIVEDLVEEVGR", "note": "[Y10M]", "abundance fitness": "-0.577 ± 0.096"}, {"variant": "RRRVRAILPFTKVPDTDEISFLKGDMFIVHNELEDGWMWVTNLRTDEQGLIVEDLVEEVGR", "note": "[Y10F]", "abundance fitness": "-0.577 ± 0.042"}, {"variant": "RRRVRAILPETKVPDTDEISFLKGDMFIVHNELEDGWMWVTNLRTDEQGLIVEDLVEEVGR", "note": "[Y10E]", "abundance fitness": "-0.838 ± 0.46"}, {"variant": "RRRVRAILPYEKVPDTDEISFLKGDMFIVHNELEDGWMWVTNLRTDEQGLIVEDLVEEVGR", "note": "[T11E]", "abundance fitness": "-0.108 ± 0.089"}, {"variant": "RRRVRAILPYSKVPDTDEISFLKGDMFIVHNELEDGWMWVTNLRTDEQGLIVEDLVEEVGR", "note": "[T11S]", "abundance fitness": "-0.05 ± 0.024"}, {"variant": "RRRVRAILPYRKVPDTDEISFLKGDMFIVHNELEDGWMWVTNLRTDEQGLIVEDLVEEVGR", "note": "[T11R]", "abundance fitness": "-0.126 ± 0.028"}, {"variant": "RRRVRAILPYQKVPDTDEISFLKGDMFIVHNELEDGWMWVTNLRTDEQGLIVEDLVEEVGR", "note": "[T11Q]", "abundance fitness": "-0.097 ± 0.084"}, {"variant": "RRRVRAILPYVKVPDTDEISFLKGDMFIVHNELEDGWMWVTNLRTDEQGLIVEDLVEEVGR", "note": "[T11V]", "abundance fitness": "0.017 ± 0.029"}, {"variant": "RRRVRAILPYAKVPDTDEISFLKGDMFIVHNELEDGWMWVTNLRTDEQGLIVEDLVEEVGR", "note": "[T11A]", "abundance fitness": "-0.05 ± 0.035"}, {"variant": "RRRVRAILPYLKVPDTDEISFLKGDMFIVHNELEDGWMWVTNLRTDEQGLIVEDLVEEVGR", "note": "[T11L]", "abundance fitness": "-0.169 ± 0.028"}, {"variant": "RRRVRAILPYPKVPDTDEISFLKGDMFIVHNELEDGWMWVTNLRTDEQGLIVEDLVEEVGR", "note": "[T11P]", "abundance fitness": "-0.696 ± 0.051"}, {"variant": "RRRVRAILPYGKVPDTDEISFLKGDMFIVHNELEDGWMWVTNLRTDEQGLIVEDLVEEVGR", "note": "[T11G]", "abundance fitness": "-0.416 ± 0.033"}, {"variant": "RRRVRAILPYDKVPDTDEISFLKGDMFIVHNELEDGWMWVTNLRTDEQGLIVEDLVEEVGR", "note": "[T11D]", "abundance fitness": "0.016 ± 0.034"}, {"variant": "RRRVRAILPYIKVPDTDEISFLKGDMFIVHNELEDGWMWVTNLRTDEQGLIVEDLVEEVGR", "note": "[T11I]", "abundance fitness": "-0.055 ± 0.028"}, {"variant": "RRRVRAILPYFKVPDTDEISFLKGDMFIVHNELEDGWMWVTNLRTDEQGLIVEDLVEEVGR", "note": "[T11F]", "abundance fitness": "-0.184 ± 0.026"}, {"variant": "RRRVRAILPYCKVPDTDEISFLKGDMFIVHNELEDGWMWVTNLRTDEQGLIVEDLVEEVGR", "note": "[T11C]", "abundance fitness": "-0.028 ± 0.028"}, {"variant": "RRRVRAILPYWKVPDTDEISFLKGDMFIVHNELEDGWMWVTNLRTDEQGLIVEDLVEEVGR", "note": "[T11W]", "abundance fitness": "-0.213 ± 0.049"}, {"variant": "RRRVRAILPYKKVPDTDEISFLKGDMFIVHNELEDGWMWVTNLRTDEQGLIVEDLVEEVGR", "note": "[T11K]", "abundance fitness": "-0.13 ± 0.067"}, {"variant": "RRRVRAILPYNKVPDTDEISFLKGDMFIVHNELEDGWMWVTNLRTDEQGLIVEDLVEEVGR", "note": "[T11N]", "abundance fitness": "-0.026 ± 0.029"}, {"variant": "RRRVRAILPYHKVPDTDEISFLKGDMFIVHNELEDGWMWVTNLRTDEQGLIVEDLVEEVGR", "note": "[T11H]", "abundance fitness": "-0.129 ± 0.031"}, {"variant": "RRRVRAILPYYKVPDTDEISFLKGDMFIVHNELEDGWMWVTNLRTDEQGLIVEDLVEEVGR", "note": "[T11Y]", "abundance fitness": "-0.278 ± 0.029"}, {"variant": "RRRVRAQLPYTKVPDTDEISFLKGDMFIVHNELEDGWMWVTNLRTDEQGLIVEDLVEEVGR", "note": "[I7Q]", "abundance fitness": "-0.473 ± 0.11"}, {"variant": "RRRVRARLPYTKVPDTDEISFLKGDMFIVHNELEDGWMWVTNLRTDEQGLIVEDLVEEVGR", "note": "[I7R]", "abundance fitness": "-0.055 ± 0.034"}, {"variant": "RRRVRASLPYTKVPDTDEISFLKGDMFIVHNELEDGWMWVTNLRTDEQGLIVEDLVEEVGR", "note": "[I7S]", "abundance fitness": "-0.236 ± 0.027"}, {"variant": "RRRVRAYLPYTKVPDTDEISFLKGDMFIVHNELEDGWMWVTNLRTDEQGLIVEDLVEEVGR", "note": "[I7Y]", "abundance fitness": "-0.366 ± 0.032"}, {"variant": "RRRVRATLPYTKVPDTDEISFLKGDMFIVHNELEDGWMWVTNLRTDEQGLIVEDLVEEVGR", "note": "[I7T]", "abundance fitness": "-0.088 ± 0.047"}, {"variant": "RRRVRANLPYTKVPDTDEISFLKGDMFIVHNELEDGWMWVTNLRTDEQGLIVEDLVEEVGR", "note": "[I7N]", "abundance fitness": "-0.292 ± 0.032"}]}]}
